# Ends that are not written are not given here.
# Target: T1, dipeptidyl-peptidase IV (DPP-IV) (Homo sapiens, UniProt P27487)
# T1 construct: purchased Creative BioMart (Shirley, NY, USA); host or cells: HEK293 human cells
# Assay: DPP-IV inhibition assay on SPOT-synthesized peptides (cleaved from cellulose membrane)
# Assay type: biochemical
# Conditions: peptides cleaved from cellulose membrane, concentration not known (semi-quantitative); averages of four determinations from two experiments
# Excerpt: Recombinant human dipeptidyl-peptidase IV (DPP-IV, EC 3.4.14.5, expressed in HEK293 human cells, >95% purity, activity >5500 pmoles Gly–Pro–7-amido-4-methylcoumarin/min/µg) was purchased from Creative BioMart (Shirley, NY, USA) while polyclonal goat DPP-IV antibody and polyclonal donkey anti-goat secondary antibody conjugated to horseradish peroxidase were obtained from R&D Systems (Minneapolis, MN, USA). Pierce™ ECL western blotting substrate and protein-free (TBS) blocking buffer were from Thermo Scientific (Rockford, IL, USA). Gly–Pro–p-nitroanilide (H-Gly–Pro–p-NA∙HCl) was purchased from Bachem Americas (Torrance, CA, USA). Synthesized peptides (≥95% purity) were prepared and purified by GL Biochem (Shanghai) Ltd. (Shanghai, China).
# Peptide arrays of deca-peptides spanning the entire α-lactalbumin sequence with a frame shift of one amino acid between successive sequences were prepared by Kinexus Bioinformatics Corporation (Vancouver, BC, Canada). The peptides were synthesized from the C-terminal amino acid using the SPOT technology consisting of the stepwise coupling of the Fmoc-protected amino acids and cleavage of the side chain protection groups. The α-lactalbumin-derived peptides were synthesized on trioxatridecanediamine (TOTD) and β-alanine-modified Whatman 540 cellulose membranes for the binding and inhibition assays, respectively. For the inhibition assay, the peptides were synthesized in large dots (5–7 mm in diameter) and the quality of the synthesis was verified by HPLC analysis of quality controls spots included on the membranes.
# In order to determine the effect of the SPOT-synthesized peptides on the activity of the DPP-IV enzyme, the peptides were first cleaved from the cellulose support by incubating the membranes with gaseous ammonia overnight. Peptide spots (5 mm in diameter) were then punched out using a single-hole punch and transferred into microcentrifuge tubes containing 150 µL of acetonitrile (50% in 100 mM Tris–HCl buffer pH 8.0). The peptide solution (50 µL) was pipetted into a 96-well microplate with 35 µL of the chromogenic substrate Gly–Pro–p-NA (0.29 mM in 100 mM Tris–HCl buffer pH 8.0). The mixture was pre-incubated for 10 min at 37 °C, whereupon 15 µL of DPP-IV (25 mU/mL) was added and the enzymatic reaction was carried out for 30 min at 37 °C. The reaction was then terminated by addition of 100 µL of 1 M sodium acetate buffer pH 4.0 and the absorbance of the released p-nitroaniline was measured at 405 nm using a Tecan Infinite® 200 Pro microplate reader (ESBE Scientific, Markham, ON, Canada). Positive and negative controls (DPP-IV activity with no inhibitor and no DPP-IV activity, respectively) were prepared using punched peptide-free cellulose spots from the same membrane used for peptide synthesis, and adding Tris-HCl buffer in place of the sample and in place of the sample and enzyme solution, respectively.
# One unit of DPP-IV was defined as the concentration of enzyme that releases 1 µmol per min of p-nitroaniline from Gly–Pro–p-NA (100 µM) at 37 °C and pH 8.0.
# T1 sequence (P27487 whole entry): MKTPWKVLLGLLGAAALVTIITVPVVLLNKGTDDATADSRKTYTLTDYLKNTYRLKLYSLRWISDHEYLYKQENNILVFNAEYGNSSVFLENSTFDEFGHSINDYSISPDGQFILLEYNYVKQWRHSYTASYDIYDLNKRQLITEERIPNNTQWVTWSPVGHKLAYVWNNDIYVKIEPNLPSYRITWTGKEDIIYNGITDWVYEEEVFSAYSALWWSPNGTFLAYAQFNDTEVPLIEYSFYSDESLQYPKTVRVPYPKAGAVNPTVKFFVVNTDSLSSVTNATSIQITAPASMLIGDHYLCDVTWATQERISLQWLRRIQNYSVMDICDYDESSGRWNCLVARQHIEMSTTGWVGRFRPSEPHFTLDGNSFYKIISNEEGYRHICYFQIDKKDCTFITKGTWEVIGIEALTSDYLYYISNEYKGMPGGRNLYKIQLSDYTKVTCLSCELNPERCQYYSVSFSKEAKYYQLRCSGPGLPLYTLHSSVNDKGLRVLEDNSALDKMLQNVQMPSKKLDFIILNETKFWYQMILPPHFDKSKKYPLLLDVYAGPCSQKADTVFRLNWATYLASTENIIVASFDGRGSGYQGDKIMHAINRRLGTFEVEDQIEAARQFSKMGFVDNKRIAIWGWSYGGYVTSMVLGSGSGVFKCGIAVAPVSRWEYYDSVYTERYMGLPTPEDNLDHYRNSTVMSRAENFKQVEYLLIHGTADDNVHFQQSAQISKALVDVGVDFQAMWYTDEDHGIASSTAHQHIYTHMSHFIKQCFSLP
row,"Percent inhibition of DPP-IV activity, SPOT-synthesized deca-peptides [%]",Substance
1,19,"G4: α-lactalbumin-derived deca-peptide, residues 70–79 (Table S1) (SNICNISCDK; UniProt P00711 89-98, looked up, fragment)"
2,25,"G5: α-lactalbumin-derived deca-peptide, residues 71–80 (Table S1) (NICNISCDKF; UniProt P00711 90-99, looked up, fragment)"
3,17,"G7: α-lactalbumin-derived deca-peptide, residues 73–82 (Table S1) (CNISCDKFLD; UniProt P00711 92-101, looked up, fragment)"
4,19,"G8: α-lactalbumin-derived deca-peptide, residues 74–83 (Table S1) (NISCDKFLDD; UniProt P00711 93-102, looked up, fragment)"
5,18,"G9: α-lactalbumin-derived deca-peptide, residues 75–84 (Table S1) (ISCDKFLDDD; UniProt P00711 94-103, looked up, fragment)"
6,9,GLFQINNKIW [E7]
7,19,"H1: α-lactalbumin-derived deca-peptide, residues 78–87 (Table S1) (DKFLDDDLTD; UniProt P00711 97-106, looked up, fragment)"
8,18,"H2: α-lactalbumin-derived deca-peptide, residues 79–88 (Table S1) (KFLDDDLTDD; UniProt P00711 98-107, looked up, fragment)"
9,18,"H3: α-lactalbumin-derived deca-peptide, residues 80–89 (Table S1) (FLDDDLTDDI; UniProt P00711 99-108, looked up, fragment)"
10,21,"H4: α-lactalbumin-derived deca-peptide, residues 81–90 (Table S1) (LDDDLTDDIM; UniProt P00711 100-109, looked up, fragment)"
11,14,"H5: α-lactalbumin-derived deca-peptide, residues 82–91 (Table S1) (DDDITDDIMC; UniProt P00709 101-110, looked up, fragment)"
12,19,"H6: α-lactalbumin-derived deca-peptide, residues 83–92 (Table S1) (DDLTDDIMCV; UniProt P00711 102-111, looked up, fragment)"
13,25,"H7: α-lactalbumin-derived deca-peptide, residues 84–93 (Table S1) (DLTDDIMCVK; UniProt P00711 103-112, looked up, fragment)"
14,20,"H8: α-lactalbumin-derived deca-peptide, residues 85–94 (Table S1) (LTDDIMCVKK; UniProt P00711 104-113, looked up, fragment)"
15,20,"H9: α-lactalbumin-derived deca-peptide, residues 86–95 (Table S1) (TDDIMCAKKI; UniProt P00709 105-114, looked up, fragment)"
16,20,"H10: α-lactalbumin-derived deca-peptide, residues 87–96 (Table S1) (DDIMCVKKIL; UniProt P00711 106-115, looked up, fragment)"
17,15,"H11: α-lactalbumin-derived deca-peptide, residues 88–97 (Table S1) (DIMCVKKILD; UniProt P00711 107-116, looked up, fragment)"
18,19,"HAEGTFTSDY [K10, HAEGTFTSDY, reference compound]"
19,20,HKALCSEKLD [J8]
20,11,HTSGYDTQAI [C10]
21,17,"I1: α-lactalbumin-derived deca-peptide, residues 89–98 (Table S1) (IMCVKKILDK; UniProt P00711 108-117, looked up, fragment)"

row,"Percent inhibition of DPP-IV activity, SPOT-synthesized deca-peptides [%]",Substance
1,19,"I2: α-lactalbumin-derived deca-peptide, residues 90–99 (Table S1) (MCAKKILDIK; UniProt P00709 109-118, looked up, fragment)"
2,26,"I3: α-lactalbumin-derived deca-peptide, residues 91–100 (Table S1) (CVKKILDKVG; UniProt P00711 110-119, looked up, fragment)"
3,20,"I6: α-lactalbumin-derived deca-peptide, residues 94–103 (Table S1) (KILDKVGINY; UniProt P00711 113-122, looked up, fragment)"
4,19,"I7: α-lactalbumin-derived deca-peptide, residues 95–104 (Table S1) (ILDKVGINYW; UniProt P00711 114-123, looked up, fragment)"
5,16,"I8: α-lactalbumin-derived deca-peptide, residues 96–105 (Table S1) (LDKVGINYWL; UniProt P00711 115-124, looked up, fragment)"
6,22,"I9: α-lactalbumin-derived deca-peptide, residues 97–106 (Table S1) (DKVGINYWLA; UniProt P00711 116-125, looked up, fragment)"
7,22,"I10: α-lactalbumin-derived deca-peptide, residues 98–107 (Table S1) (KVGINYWLAH; UniProt P00711 117-126, looked up, fragment)"
8,20,"I11: α-lactalbumin-derived deca-peptide, residues 99–108 (Table S1) (VGINYWLAHK; UniProt P00711 118-127, looked up, fragment)"
9,21,"INNKIWCKDD [E11, INNKIWCKDD]"
10,15,IVQNNDSTEY [D8]
11,21,IWCKDDQNPH [F4]
12,25,"J1: α-lactalbumin-derived deca-peptide, residues 100–109 (Table S1) (GIDYWLAHKA; UniProt P00709 119-128, looked up, fragment)"
13,18,"J2: α-lactalbumin-derived deca-peptide, residues 101–110 (Table S1) (IDYWLAHKAL; UniProt P00709 120-129, looked up, fragment)"
14,15,"J3: α-lactalbumin-derived deca-peptide, residues 102–111 (Table S1) (DYWLAHKALC; UniProt P00709 121-130, looked up, fragment)"
15,20,"J4: α-lactalbumin-derived deca-peptide, residues 103–112 (Table S1) (YWLAHKALCS; UniProt P00711 122-131, looked up, fragment)"
16,16,"J5: α-lactalbumin-derived deca-peptide, residues 104–113 (Table S1) (WLAHKALCSE; UniProt P00711 123-132, looked up, fragment)"
17,24,KALCSEKLDQ [J9]
18,16,KDDQNPHSSN [F7]
19,19,KIWCKDDQNP [F3]
20,19,KLDQWLCEKL [K4]
21,13,LFQINNKIWC [E8]

# Source: PMC4264199, “Peptide Array on Cellulose Support—A Screening Tool to Identify Peptides with Dipeptidyl-Peptidase IV Inhibitory Activity within the Sequence of α-Lactalbumin” (International Journal of Molecular Sciences, 2014)
